Laboratory results: patent US20170189489A1, “CARDIAC MUSCLE FUNCTION AND MANIPULATION” (Zensun (Shanghai) Science & Technology, Co., Ltd., priority 1998, published 2017)
“Also recorded” adds a separate entry of the source.

Legend:
p42/p44 MAP kinases [1] = test: p42/p44 MAP kinase phosphorylation in embryonic cardiomyocytes (immunoblot); type: cell-based, mouse
Method: (§1) Mouse embryos (E11.5-12.5) were used to prepare primary cardiac myocytes. Heart tissue was isolated aseptically from embryos. Myocardial cells were isolated by collagenase digestion and separated from non cardiomyocytes by preattachments on culture dishes that was performed three times. Cells were then cultured as described previously. Using this method, it was routinely possible to obtain primary cultures with >90% myocytes.
(§2) Embryonic myocardial cells were cultured in serum-free medium for at least 24 hrs and then stimulated with rhNRGβ2 or IGF-I for various times. Stimulation was terminated by washing cells rapidly with cold PBS. To block the MAP kinase activation, the MEK inhibitor, PD98059, was added to the medium 30 mins prior to the administration of rhNRGβ2 or IGF-I. Cells were then harvested as previously described for Western blot analysis with HRPO-conjugated monoclonal antibody RC20H (1:2,000) for detection of phosphorylated ErbB receptors, or a phospho-specific p42/p44 MAP kinase antibody (dilution ratio 1:1,000) for detection of phosphorylated MAP kinases. The same amount of cell extract protein was loaded into each lane and separated by SDS-PAGE. Immunobloting with an anti-ErbB receptor or anti-p42/44 MAP kinase antibodies was also used to normalise for protein loading. MAP-kinase (p42/p44) activity was measured using a p42/44 MAP kinase enzyme assay kit (RPN84; Amersham, Bucks, U.K.) according to the manufacturer's instructions.

p21^CIP1 = p21^CIP1 protein expression in embryonic cardiac muscle cells (immunoblot); type: cell-based, mouse
Method: as §1
Embryonic myocardial cells cultured in serum-free or 5% FBS medium were stimulated with various concentrations of rhNRGβ2 with or without the MEK inhibitor, PD98059, for 24 or 48 hrs, harvested as described above and subjected to immunoblot analysis using an anti-p21^CIP1 antibody (1:100). The same amount of protein was loaded into each well of a SDS polyacrylamide gel. After immunoblotting, the membrane was stripped and probed further with an antibody to the ErbB2 receptor for normalisation of protein loading.

[2] = test system: E12.5 mouse cardiac muscle cells; test: Sarcomeric and cytoskeletal structure of embryonic mouse cardiac muscle cells (phalloidin and anti-α-actinin staining); type: cell-based; conditions: for sarcomeric actin reorganisation and contractile unit assembly: 48 hrs, serum-free
Method: as §1
(§3) Myocardial cells were plated in 2-well Novex plates (Nunc), and cultured with or without rhNRGβ2 in serum-free DMEM medium for 24-48 hour. After rinsing the cells with PBS, they were fixed with 4% paraformaldehyde and 0.1% Triton X-100 at room temperature for 30 minutes. The fixed cells were then blocked with 5% skim milk in PBS for 1 hr, followed by incubation with an anti-α-actinin monoclonal antibody (Sigma), for 45 minutes at room temperature. After washing, anti-mouse IgG conjugated with FITC (Sigma) was added and the cells were incubated for another half hour. For phalloidin staining, cells were fixed with 4% formadehyde for 1 hr, washed, and stained with phalloidin buffer (100 μl PBS, 10 μl rhodarmine phalloidin (6.6 μM in MeOH)) for 1 hr. After PBS washing, cells were mounted with 1% p-phenylenediamine (1 mg/ml, Sigma) in glycerol, and then covered and sealed. Cells were examined using a UV fluorescent microscope and photographed with a 40× power objective.

[3] = test system: neonatal rat cardiac muscle cells; test: Sarcomeric and cytoskeleton structures and MHC-α expression of cultured neonatal rat cardiac muscle cells; type: cell-based; conditions: for sarcomeric and cytoskeleton structures, cell-cell adhesions: single agent, Phalloidin and anti-α-actinin staining
Method: By using primary cultured myocardial cells as a model system, the present inventor evaluated neuregulin signalling in cardiac myocyte differentiation, maturation and assembly or maintenance of sarcomeric and cytoskeleton structures. To assay the neuregulin effect on cell signalling, embryonic cardiac muscle cells were incubated with recombinantly purified human neuregulin ligand (rhNRGβ2). […] Such an effect was not found from the cells stimulated with either insulin IGF-1 or PE. […] These findings indicate that NRG function through two distinct pathways: one activated at lower ligand concentrations results in cardiomyocyte growth, whereas the other, activated with higher concentrations, is mediated by sustained activation of the MAP kinase pathway and results in terminal differentiation and maturation.
as §3

ventricular muscle cells = conditions: cited from earlier work; for hypertrophy score (maximal increase in cell size): scale 7 to 0, 3 = non-stimulated cells, 7 = fully hypertrophied
[4] = test system: embryonic mouse cardiomyocytes; test: DNA synthesis ([3H] thymidine incorporation) in cultured embryonic mouse cardiomyocytes; type: cell-based; conditions: for effect on IGF-I (10^−9M)-stimulated DNA synthesis: 20 hrs
Method: as §1
Embryonic myocardial cells were cultured with rhNRGβ2 or IGF-I containing serum-free DMEM for 20 hrs. [methyl-^3H] Thymidine (0.5 μCi/well) was added and cells were then cultured for a further 12 hrs. After rinsing twice with cold PBS, once with ice-cold 10% trichloroacetic acid, and then five times with ice-cold PBS, the cells were dissolved in 100 μl of 1% SDS, and counted in a liquid scintillation counter.
All of the above assays were repeated at least three times for each experiments. Data for DNA synthesis and MAP kinase activity are presented as the mean±S.E of five replicate samples. Statistical significance was determined by ANOVA using the SAS statistical package with P<0.05 being considered significant. Immunoblots were quantitated by densitometry analysis with the intensity of the evaluated protein bands being shown below the blots as the fold changes over control (see FIGs).

[5] = molecular target: T1, ErbB2 and ErbB4 receptors (Mus musculus, UniProt Q61527); test: ErbB receptor phosphorylation in embryonic cardiomyocytes (Western blot / immunoprecipitation); type: cell-based
T1 construct: ErbB2 and ErbB4 are most abundantly expressed in cardiac myocytes; endogenous in cells; host or cells: primary embryonic (E11.5-12.5) mouse cardiac myocytes
Method: as §1
as §2, with “Immunobloting with an anti-ErbB receptor or anti-p42/44 MAP kinase antibodies was also used to normalise for protein loading.” left out

p42/p44 MAP kinases [6] = test: MAP kinase catalytic activity in extracts of treated cardiomyocytes (p42/44 MAP kinase enzyme assay kit); type: cell-based, mouse
Method: as §1
Embryonic myocardial cells were cultured in serum-free medium for at least 24 hrs and then stimulated with rhNRGβ2 or IGF-I for various times. Stimulation was terminated by washing cells rapidly with cold PBS. […] MAP-kinase (p42/p44) activity was measured using a p42/44 MAP kinase enzyme assay kit (RPN84; Amersham, Bucks, U.K.) according to the manufacturer's instructions.
All of the above assays were repeated at least three times for each experiments. […] Statistical significance was determined by ANOVA using the SAS statistical package with P<0.05 being considered significant. Immunoblots were quantitated by densitometry analysis with the intensity of the evaluated protein bands being shown below the blots as the fold changes over control (see FIGs).

[7] = test system: sarcomeric myosin heavy chains; test: Sarcomeric myosin heavy chain and sarcomeric actin expression in embryonic mouse cardiac muscle cells (immunoblot); type: cell-based; conditions: rhNRGβ2-stimulated
Method: FIGS. 6A-6B. Effects of NRG on cardiac sarcomere assembly and myosin heavy chains expression. FIG. 6A. E12.5 mouse cardiac muscle cells were cultured in serum-free medium (control) or stimulated with 10^−10 or 10^−8M rhNRGβ2 (NRG) for 48 hrs. Cells were then stained with phalloidin (left panels) or evaluated for anti-α-actinin immunoflorescency (right panels). FIG. 6B. Sarcomeric myosin heavy chain α-actin expression rhNRGβ2-stimulated embryonic mouse cardiac muscle cells were evaluated by immunoblot analysis using an anti-sarcomeric myosin heavy chain antibody (MF20) or an anti-α-actinin antibody. The same amount of whole cell extracts (20 μg proteins) was loaded into each lane for SDS-PAGE fractionation.
as §1

[8] = test system: MCF-7 breast cancer cell ErbB receptors; test: Stimulation of MCF-7 breast cancer cell ErbB receptors (activity check of purified protein); type: cell-based; conditions: ligand 10^−12M to 10^−8M, MCF-7 cells
From the text: A cDNA encoding the EGF-like domain of human NRGβ2 isoform (rhNRGβ2, residues 177-237, was inserted into the pFLAG1 expression vector (IBI) (a gift from Dr. Rodney J. Fiddes, Co-operative Research Centre for Biopharmaceutical Research, Australia). rhNRGβ2 with a FLAG-peptide attached at its N-terminus, was expressed in the periplasmic space of E. coli DH5α, and purified by affinity chromatography using anti-FLAG M1 monoclonal antibody according to the manufacturer's instructions. The purity of rhNRGβ2 was more than 90% as evidenced by SDS-PAGE separation and Coomassie Blue staining of purified protein samples. The concentration of purified proteins was determined using a Bio-Rad protein assay kit. Activity of the purified proteins was assayed by stimulation of MCF-7 breast cancer cell ErbB receptors with various ligand doses.

T1 sequence (Q61527 26-1308): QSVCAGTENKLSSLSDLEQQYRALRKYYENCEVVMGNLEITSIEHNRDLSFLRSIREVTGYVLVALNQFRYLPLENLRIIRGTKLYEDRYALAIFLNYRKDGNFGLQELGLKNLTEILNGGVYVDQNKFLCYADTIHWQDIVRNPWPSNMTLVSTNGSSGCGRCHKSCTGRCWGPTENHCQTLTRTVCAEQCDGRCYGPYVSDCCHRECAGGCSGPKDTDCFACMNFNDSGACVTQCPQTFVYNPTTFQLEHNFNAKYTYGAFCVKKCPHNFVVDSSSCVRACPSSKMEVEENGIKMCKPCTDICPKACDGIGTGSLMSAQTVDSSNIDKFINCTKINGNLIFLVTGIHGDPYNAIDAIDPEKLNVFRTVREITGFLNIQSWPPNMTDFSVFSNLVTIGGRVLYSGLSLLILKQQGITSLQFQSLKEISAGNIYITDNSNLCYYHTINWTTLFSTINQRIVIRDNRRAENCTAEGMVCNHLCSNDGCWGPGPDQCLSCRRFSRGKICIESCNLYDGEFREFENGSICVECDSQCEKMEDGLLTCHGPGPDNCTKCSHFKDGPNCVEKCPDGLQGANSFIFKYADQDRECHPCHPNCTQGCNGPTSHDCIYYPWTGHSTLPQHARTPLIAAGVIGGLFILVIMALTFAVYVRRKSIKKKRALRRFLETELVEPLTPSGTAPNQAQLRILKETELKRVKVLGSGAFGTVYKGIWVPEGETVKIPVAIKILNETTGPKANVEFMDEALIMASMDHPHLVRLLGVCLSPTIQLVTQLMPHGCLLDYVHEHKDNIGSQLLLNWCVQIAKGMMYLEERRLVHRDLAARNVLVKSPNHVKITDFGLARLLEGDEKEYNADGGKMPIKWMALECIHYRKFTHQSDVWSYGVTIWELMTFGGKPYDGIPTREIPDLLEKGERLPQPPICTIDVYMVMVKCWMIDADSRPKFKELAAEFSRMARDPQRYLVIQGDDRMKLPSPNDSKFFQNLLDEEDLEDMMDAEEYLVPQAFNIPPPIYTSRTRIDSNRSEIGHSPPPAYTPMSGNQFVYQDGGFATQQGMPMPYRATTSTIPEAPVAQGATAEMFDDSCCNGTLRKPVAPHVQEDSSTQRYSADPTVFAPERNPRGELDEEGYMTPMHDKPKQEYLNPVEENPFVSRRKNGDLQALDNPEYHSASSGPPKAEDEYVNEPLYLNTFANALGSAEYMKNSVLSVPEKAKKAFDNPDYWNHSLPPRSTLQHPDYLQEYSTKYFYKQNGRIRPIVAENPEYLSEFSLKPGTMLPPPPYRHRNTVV
T1 sequence (P70424 23-1256 partner): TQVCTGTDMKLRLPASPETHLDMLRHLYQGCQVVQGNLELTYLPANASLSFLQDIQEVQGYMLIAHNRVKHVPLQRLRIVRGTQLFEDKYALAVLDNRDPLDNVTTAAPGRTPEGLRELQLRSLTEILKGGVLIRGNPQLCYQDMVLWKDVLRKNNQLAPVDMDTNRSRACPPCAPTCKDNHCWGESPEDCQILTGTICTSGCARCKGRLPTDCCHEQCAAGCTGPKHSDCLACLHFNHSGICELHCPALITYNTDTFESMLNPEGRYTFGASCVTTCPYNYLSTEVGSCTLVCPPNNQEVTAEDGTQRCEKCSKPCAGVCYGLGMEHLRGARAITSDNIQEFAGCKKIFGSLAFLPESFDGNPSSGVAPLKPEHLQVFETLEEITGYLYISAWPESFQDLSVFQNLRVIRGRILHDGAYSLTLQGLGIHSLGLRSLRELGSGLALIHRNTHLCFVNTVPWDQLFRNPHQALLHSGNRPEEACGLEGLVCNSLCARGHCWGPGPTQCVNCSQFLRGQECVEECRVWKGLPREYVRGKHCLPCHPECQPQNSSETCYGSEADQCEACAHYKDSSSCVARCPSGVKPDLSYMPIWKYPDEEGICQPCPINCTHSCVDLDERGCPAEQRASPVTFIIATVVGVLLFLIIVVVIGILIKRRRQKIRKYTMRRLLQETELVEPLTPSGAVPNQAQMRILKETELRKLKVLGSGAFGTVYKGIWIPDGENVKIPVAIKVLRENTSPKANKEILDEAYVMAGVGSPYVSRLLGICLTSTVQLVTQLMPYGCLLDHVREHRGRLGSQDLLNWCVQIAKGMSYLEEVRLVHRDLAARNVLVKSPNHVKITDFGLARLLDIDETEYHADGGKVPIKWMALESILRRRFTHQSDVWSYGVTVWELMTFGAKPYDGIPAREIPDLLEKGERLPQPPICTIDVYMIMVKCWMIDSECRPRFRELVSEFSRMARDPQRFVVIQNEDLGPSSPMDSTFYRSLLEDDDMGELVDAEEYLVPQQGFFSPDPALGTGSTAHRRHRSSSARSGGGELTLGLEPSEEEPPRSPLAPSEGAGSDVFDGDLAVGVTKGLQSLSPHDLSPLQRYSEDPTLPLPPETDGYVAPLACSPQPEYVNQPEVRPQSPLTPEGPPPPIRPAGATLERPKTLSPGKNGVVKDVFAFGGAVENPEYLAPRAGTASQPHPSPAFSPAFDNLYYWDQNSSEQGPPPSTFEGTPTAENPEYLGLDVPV

## COc1cccc(-c2cc(=O)c3ccccc3o2)c1N [PD98059, reference compound]
p42/p44 MAP kinases [1]; PD98059 added 30 mins before, cells stimulated 5 min
  effect on NRG-induced increase in p42/44 MAP kinase phosphorylation: blocked
p21^CIP1; PD98059 50 μM, presence or absence of serum
  effect on p21^CIP1 expression induced by 10^−8M rhNRGβ2: blocked the increase in p21^CIP1 expression
[2]; PD98059
  sensitivity of rhNRGβ2 effects on cardiomyocytes to MEK1 inhibition: sensitive to MEK1 inhibition

## CNC[C@H](O)c1cccc(O)c1 [PE, phenylephrine]
[3]
  sarcomeric and cytoskeleton structures, cell-cell adhesions: not found
Ventricular muscle cells; non-exposed cells 581 μm^2
  surface area/cell of fully hypertrophied cells: 1811 μm^2
Ventricular muscle cells
  hypertrophy score (maximal increase in cell size): 7

## CC[C@H](C)[C@H](NC(=O)[C@H](CC(=O)O)NC(=O)[C@H](CC(C)C)NC(=O)[C@H](Cc1c[nH]cn1)NC(=O)[C@@H]1CSSC[C@H](N)C(=O)N[C@@H](CO)C(=O)N[C@H]2CSSC[C@H](NC(=O)[C@H](CCC(=O)O)NC(=O)[C@H](CCCCN)NC(=O)[C@H](CC(=O)O)NC(=O)[C@H](CCSC)NC(=O)[C@H](CC(C)C)NC(=O)[C@H](CO)NC(=O)[C@H](CO)NC2=O)C(=O)N[C@@H](C(C)C)C(=O)N[C@@H](Cc2ccc(O)cc2)C(=O)N[C@@H](Cc2ccccc2)C(=O)N1)C(=O)N[C@H](C(=O)N[C@@H](Cc1c[nH]c2ccccc12)C(=O)O)[C@@H](C)CC [endothelin]
Ventricular muscle cells
  hypertrophy score (maximal increase in cell size): ~5

## IGF-I: recombinant human insulin-like growth factor I, commercially obtained (Boehringer)
[4]; concentrations ranging from 10^−11M to 10^−7M
  DNA synthesis response: only a proliferative response
p42/p44 MAP kinases [1]; IGF-I low (10^−9M) and high (10^−8M or 10^−7M) concentrations
  MAP kinase phosphorylation time course: transient
p21^CIP1; IGF-I 10^−10M or 10^−8M
  p21^CIP1 expression: did not stimulate p21^CP1 expression
[3]
  sarcomeric and cytoskeleton structures, cell-cell adhesions: not found

B1: rhNRGβ2: EGF-like domain of human NRGβ2 isoform, residues 177-237 (SEQ ID NO: 2), FLAG-peptide at N-terminus, expressed in E. coli DH5α (protein, listed as Homo sapiens)
chain: {FLAG}-SHLVKCAEKEKTFCVNGGECFMVKDLSNPSRYLCKCPNEFTGDRCQNYVMASFYKAEELYQ
modifications: also: recombinant protein expressed in E. coli
[4]; 10^−8M NRG
  effect on IGF-I (10^−9M)-stimulated DNA synthesis: significantly blocked the IGF-I response
[4]; 10^−10M NRG
  effect on IGF-I (10^−9M)-stimulated DNA synthesis: little effect
[4]; all concentrations except 10^−7M, P<0.001, 20 hr
  DNA synthesis response versus control (vehicle): significantly greater than control
[4]; ligand concentrations >10^−10M
  DNA synthesis: decreased
[4]; rhNRGβ2 at 10^−10, 20 hr treatment, embryonic mouse cardiomyocytes (E11.5-12.5)
  increase in DNA synthesis: approximately 2 fold
[5]; 10^−8M compared with 10^−10M, cell lysates
  phosphorylation of 180-185 kDa proteins corresponding to ErbB2/ErbB4 receptors: a higher level of phosphorylated 180-185 kDa proteins
[5]; 5 min stimulation, 10^−10M or 10^−8M
  phosphorylation of immunoprecipitated ErbB2 and ErbB4: dependent on rhNRβ2 concentrations
p42/p44 MAP kinases [1]; 10^−8M (higher dose)
  duration of p42/p44 MAP kinase phosphorylation: at least 21 hours
p42/p44 MAP kinases [1]; 10^−10M (lower ligand concentration), fell to basal level in less than three hours
  MAP kinase activation (phosphorylation) time course: only transient activation
p42/p44 MAP kinases [1]; combination of IGF-I (10^−9M) and rhNRGβ2 (10^−8M)
  MAP kinase phosphorylation time course: sustained MAP kinase phosphorylation
p42/p44 MAP kinases [6]; 10^−8M
  duration of MAP kinase catalytic activity: at least 21 hours
p42/p44 MAP kinases [6]; 10^−10M
  MAP kinase catalytic activity time course: only transient
p21^CIP1; 10^−8M
  duration of enhanced p21^CIP1 expression: at least 24 hours
p21^CIP1; 10^−8M (higher concentration), serum-free or 5% FBS, 24 hrs
  p21^CIP1 expression: increase in p21^CIP1 expression; also recorded: enhanced
[2]; 10^−8M
  sarcomeric actin reorganisation and contractile unit assembly: stimulated both sarcomeric actin reorganisation (phalloidin staining) and cardiac contractile unit assembly
[2]; 10^−10M
  sarcomeric actin reorganisation and contractile unit assembly: much less evident
[7]; MF20 immunoblot
  expression of sarcomeric myosin heavy chains: enhanced expression of sarcomeric myosin heavy chains
[7]; immunoblot
  sarcomeric actin expression: remained unchanged
[8]
  ErbB receptor phosphorylation: increased ErbB receptor phosphorylation with increasing ligand concentration
[3]; 10^−8M concentration
  improvement of sarcomeres and cell-cell adhesions: maximal effect
[3]; rhNRGβ2 mixed with IGF-1 or PE
  cell structures when mixed with either IGF-1 or PE: improved the cell structures
[3]
  sarcomeric and cytoskeleton structures, cell-cell adhesions: dramatically improved sarcomeric and cytoskeleton structures, as well as cell-cell adhesions
[3]; with PE
  MHC-α expression under PE stimulation: overrode the negative regulation of MHC-α expression
